What was measured:
[1] = biological target: sRAGE antigen (biotin-labeled); assay: ELISA: antibody coated on plate, serial dilution of biotinylated sRAGE, HRP-streptavidin detection, Prism non-linear fit
[2] = biological target: sRAGE antigen (biotin-labeled); assay: ELISA with biotinylated sRAGE
[3] = biological target: sRAGE antigen (biotin-labeled); assay: ELISA: antibody coated on plate, serial dilution of biotinylated sRAGE, HRP-streptavidin detection, Prism non-linear fit; remark: listed apart in the source

Row | Kd [1] [nM] | Kd [2] [nM] | Kd [3] [nM] | Binder
1 | 42.1 | 133 | – | humanized anti-RAGE antibody, full-length IgG1 (antibody, V domains shown) VH: QVQLQESGPGLVKPSQTLSLTCAVYGGSITSGYYWNWIRQPPGKGLEWIGDISYDGSNNYNPSLKSRVTISRDTSKNQFSLKLSSVTAADTAVYYCVREDRSGYPPFANWGQGTLVTVSS VL: DIQMTQSPSSLSASVGDRVTITCQASQDISNYLNWYQQKPGKAPKLLIYYTSRLHSGVPSRFSGSGSGTDFTFTISSLQPEDIATYYCQQGNTLPWTFGQGTKV
2 | 88.4 | 62.6 | 58 | original murine anti-RAGE monoclonal antibody (IgG2a isotype with a Kappa light chain) (antibody, V domains shown) VH: DVQLQESGPGLVKPSQSLSLNCSVTGSSITSGYYWNWIRQFPGNKLEWMGDISYDGSNNYNPSLKNRISITRDTSKNQVFMKLNSVTTEDTAIYKCVREDRSGYPPFANWGQGTLVTVSA VL: DVQMTQTTSSLSASLGDRVTINCRASQDISNYLNWYQQKPDGTVKLLIYYTSRLHSGVPSRFSGSGSGTDYSLTISNLEQEDIATYFCQQGNTLPWTFGGGTKLEIK
3 | 38.7 | 104 | 40 | mouse-human chimera anti-RAGE antibody (antibody, human IgG1, kappa, V domains shown) VH: DVQLQESGPGLVKPSQSLSLNCSVTGSSITSGYYWNWIRQFPGNKLEWMGDISYDGSNNYNPSLKNRISITRDTSKNQVFMKLNSVTTEDTAIYKCVREDRSGYPPFANWGQGTLVTVSS VL: DIQMTQTTSSLSASLGDRVTINCRASQDISNYLNWYQQKPDGTVKLLIYYTSRLHSGVPSRFSGSGSGTDYSLTISNLEQEDIATYFCQQGNTLPWTFGQGTKVEIKR

Reference: US20190119378A1
